Assay results taken from the supplement of paper PMC9732359.
± gives the uncertainty stated by the source.

Experiment: protein stability index of a GFP-peptide fusion (yeast GPS) (PSI 1-4); higher = more stable; sorted into four equal gates, so the index is relative within each strain
How it was run: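 Tiled 17-residue peptides from yeast proteins were fused downstream of GFP on a plasmid that also expresses Cherry, and the pooled library was carried in yeast. Mid-log cultures grown in leucine-free medium were sorted into four equal gates by GFP/Cherry fluorescence ratio. Plasmids from each gate were PCR-amplified and Illumina-sequenced, and reads were assigned to strains by barcodes. Each peptide's protein stability index is the sum, over gates, of the gate's read frequency multiplied by its gate number.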

Sequence | protein stability index (doa10∆) | protein stability index (pdr5∆) | protein stability index (san1∆) | protein stability index (ubr1∆)
VKSEVDVQVDAEEKREA [ITC1] | 3.22 ± 0.17 | 2.97 ± 0.21 | 3.12 ± 0.23 | 3.16 ± 0.11
KALLFFNNEKETEKFAL [RPN12] | 3.25 ± 0.084 | 3.03 ± 0.12 | 3.31 ± 0.059 | 3.17 ± 0.083
DNVSFIEEAKSIRRQDY [REC8] | 2.85 ± 0.12 | 3.06 ± 0.11 | 3.28 ± 0.09 | 3.15 ± 0.08
KNFDMLNSMEKDRISHE [PCI8] | 2.33 ± 0.069 | 2.31 ± 0.076 | 2.35 ± 0.08 | 2.4 ± 0.043
RGTTAVLKESIVNICDI [PUP1] | – | 3.2 ± 0.22 | – | 1.79 ± 0.27
NEEATPIPSSETKADGI [RRP6] | 3.04 ± 0.053 | 3.18 ± 0.058 | 3.04 ± 0.049 | 3.01 ± 0.04
DLCSSVLSQFERSYPSE [ROX3] | 2.58 ± 0.094 | 3.42 ± 0.17 | 2.98 ± 0.074 | 3.17 ± 0.086
IRDLEKLYDKTENDIKA [RPT4] | 2.66 ± 0.18 | 2.6 ± 0.21 | 1.91 ± 0.22 | 2.43 ± 0.22
ETRPAQVILPMSPNHGT [FAS2] | 2.43 ± 0.042 | 2.38 ± 0.04 | 2.46 ± 0.071 | 2.36 ± 0.036
EGDFLKSIIGKLTAERA [POP1] | 1.63 ± 0.14 | 3.23 ± 0.082 | 2.1 ± 0.11 | 3.03 ± 0.12
MRSKLEKLTLVTLSEIY [CSN9] | 1.56 ± 0.05 | 1.79 ± 0.035 | 1.79 ± 0.07 | 1.79 ± 0.051
VLDKMHARARGPRAVLT [RET1] | 2.88 ± 0.11 | 3.22 ± 0.11 | 3.15 ± 0.067 | 3.09 ± 0.087
LLIHRKGLTYLHLDYNF [PRP8] | 1.77 ± 0.043 | 1.28 ± 0.034 | 1.32 ± 0.079 | 1.56 ± 0.048
GAIILTKMDGHARGGGA [SRP54] | 2.88 ± 0.24 | 3.13 ± 0.16 | 2.95 ± 0.13 | –
REIQIDAVLKIFSFHQD [SRB8] | 3.27 ± 0.08 | 3.12 ± 0.09 | 3.06 ± 0.052 | 3.04 ± 0.04
EDLFETISQALLNAADR [PUP3] | 2.81 ± 0.12 | 2.01 ± 0.089 | 1.89 ± 0.16 | 1.92 ± 0.067
KLSEIILNINNSTSKNT [SWI1] | 2.96 ± 0.067 | 2.92 ± 0.077 | 2.74 ± 0.1 | 3.01 ± 0.062
AQAQAQAQAQVYAQQST [PGD1] | 2.87 ± 0.053 | 3.05 ± 0.052 | 2.97 ± 0.045 | 3.01 ± 0.044
VSKEGLYQLVDIRDSSC [YMR129W/POM152] | 2.83 ± 0.099 | 2.92 ± 0.084 | 2.7 ± 0.06 | 2.84 ± 0.05
YYYNTKIYKLENGERKL [YMR129W/POM152] | 3.03 ± 0.05 | 3.26 ± 0.069 | 3.1 ± 0.069 | 3.18 ± 0.04
ISFAIYSALNSTYLPKL [RRP42] | 2.1 ± 0.054 | 2.3 ± 0.048 | 2.05 ± 0.058 | 2.34 ± 0.039
ITHNTNITDNLFQELSK [GRR1] | 3.27 ± 0.091 | 3.55 ± 0.13 | 3.62 ± 0.22 | 3.18 ± 0.16
YIEDGRNPDIYTREFVE [NUT2] | 3.39 ± 0.066 | 3.38 ± 0.054 | 3.13 ± 0.044 | 3.33 ± 0.04
QKNDTAAFKDIAKRQFK [RRP40] | 2.95 ± 0.093 | 3.33 ± 0.12 | 2.76 ± 0.068 | 3.35 ± 0.058
EDYPMSSEIKIYYNELQ [SIR4] | 1.95 ± 0.13 | 3.16 ± 0.13 | 2.53 ± 0.25 | 3.02 ± 0.079
SKSAFSFGTANTNGTNA [YOR098C/NUP1] | 3 ± 0.088 | 3.08 ± 0.088 | 2.77 ± 0.14 | 2.86 ± 0.067

Sequence | protein stability index (doa10∆) | protein stability index (pdr5∆) | protein stability index (san1∆) | protein stability index (ubr1∆)
ENAYKSENAPSASSKEF [YAR002W/NUP60] | 2.18 ± 0.066 | 1.86 ± 0.062 | 2.15 ± 0.078 | 2.15 ± 0.074
QTSVTTNFNEITNTDET [SWP82] | 2.84 ± 0.061 | 3.09 ± 0.051 | 2.86 ± 0.042 | 3.14 ± 0.039
QPHIFNNPKVKTSKRTK [RPS11A] | 2.95 ± 0.052 | 2.81 ± 0.061 | 2.98 ± 0.091 | 2.36 ± 0.031
VNNPQEETSHLLTVTPG [RPN10] | 2.62 ± 0.13 | 2.84 ± 0.08 | 2.99 ± 0.14 | 2.86 ± 0.066
KSGKFCSHCGCVYVPNF [SNM1] | 2.48 ± 0.068 | 1.79 ± 0.055 | 1.7 ± 0.11 | 1.42 ± 0.062
NQLLAALVAYTPTDVIG [RRP6] | 1.66 ± 0.045 | 1.39 ± 0.048 | 1.25 ± 0.072 | 1.24 ± 0.032
EDEFIVQHDQILVMETS [SWP82] | 2.95 ± 0.069 | 2.54 ± 0.063 | 2.33 ± 0.082 | 2.98 ± 0.048
IHGQDFQFFPKELDALQ [ISW2] | 2.62 ± 0.048 | 2.75 ± 0.053 | 3.11 ± 0.037 | 2.78 ± 0.041
GDKFSEDFRIQFKTTIK [UBP6] | 3.14 ± 0.1 | 2.93 ± 0.09 | 2.32 ± 0.087 | 2.58 ± 0.059
TTQGGLTSVTRHGFNRS [RPO21] | 3.14 ± 0.088 | 3.04 ± 0.08 | 3.15 ± 0.077 | 3.26 ± 0.071
ITQMRVNDEEEHKQLVA [RPC82] | 3.29 ± 0.13 | 2.92 ± 0.099 | 2.82 ± 0.13 | 3.34 ± 0.16
AGAVAPEDIWVRAVNTG [RPP0] | – | – | 1.93 ± 0.28 | 1.31 ± 0.29
ILNHIGQLTGIYRYKYK [PRP8] | 1.39 ± 0.072 | 1.47 ± 0.075 | 1.26 ± 0.11 | 2.03 ± 0.068
EESWEKVVEFAITHMID [SCL1] | 2.62 ± 0.087 | 2.92 ± 0.098 | 3.06 ± 0.083 | 2.91 ± 0.07
MNLQNNVLNQIHQILLP [CSE2] | 2.73 ± 0.062 | 2.73 ± 0.071 | 2.24 ± 0.12 | 3.21 ± 0.12
GEGPFTVKFKHMDYDGN [YMR129W/POM152] | 2.79 ± 0.11 | 2.86 ± 0.068 | 2.78 ± 0.11 | 2.78 ± 0.059
DTLLLLPTDGGLTSRLQ [POP4] | 3.01 ± 0.14 | 3.06 ± 0.15 | 3.13 ± 0.095 | 3.26 ± 0.13
KLSIAEERDRRRAQQGL [RPS4A] | 2.11 ± 0.06 | 2.19 ± 0.069 | 2.49 ± 0.095 | 1.6 ± 0.063
LHLANEHGLQITHTENY [BRN1] | 2.71 ± 0.13 | 2.79 ± 0.13 | 2.68 ± 0.15 | 2.76 ± 0.068
EKDAVSVFGFRTQFGGG [RPS24A] | 1.92 ± 0.068 | 2.09 ± 0.094 | 2 ± 0.14 | 1.93 ± 0.064
IDLLWKGKTPKNAAESS [PRP28] | 2.86 ± 0.17 | 3.12 ± 0.18 | 2.91 ± 0.15 | 3.14 ± 0.13
QNVISLGSLTVEDYLSS [RPC82] | 2.83 ± 0.095 | 2.84 ± 0.078 | 2.06 ± 0.12 | 3 ± 0.074
KLKEMQKVLNAHRQRAM [SMC4] | 1.84 ± 0.099 | 2.14 ± 0.12 | 1.9 ± 0.12 | 1.57 ± 0.055
GSEVRLRDDTLPKAWIS [COR1] | 2.49 ± 0.053 | 2.75 ± 0.065 | 2.72 ± 0.075 | 2.69 ± 0.06
RTLTAVHDKVLEDMVFP [RPS7B] | 3 ± 0.081 | 3.09 ± 0.069 | 2.81 ± 0.068 | 3.27 ± 0.074
